Laboratory results: publication PMC4875590, “LATE ELONGATED HYPOCOTYL regulates photoperiodic flowering via the circadian clock in Arabidopsis”

B1: FT CBS (dsDNA)
DNA 1: GCTTTAGATTTTTAATAG
DNA 2: CTATTAAAAATCTAAAGC
B2: FT EE (dsDNA)
DNA 1: TAATTAAAATATCTGCAAA
DNA 2: TTTGCAGATATTTTAATTA

Biological target: MBP-CCA1 (Arabidopsis thaliana, UniProt P92973 1-608)
Experiment: EMSA; 100 ng protein; 100 ng poly(dI-dC); EMSA: 10 mM Tris-HCl pH 7.6, 50 mM NaCl, 1 mM EDTA, 5 mM DTT, 5% glycerol, 100 ng poly(dI-dC), 30 min, room temperature; 6% native PAGE
Conditions: protein: recombinant; tags: MBP (N-terminal, pMAL-c2X); label: 32P end label

MBP-CCA1, sequence (P92973 whole entry): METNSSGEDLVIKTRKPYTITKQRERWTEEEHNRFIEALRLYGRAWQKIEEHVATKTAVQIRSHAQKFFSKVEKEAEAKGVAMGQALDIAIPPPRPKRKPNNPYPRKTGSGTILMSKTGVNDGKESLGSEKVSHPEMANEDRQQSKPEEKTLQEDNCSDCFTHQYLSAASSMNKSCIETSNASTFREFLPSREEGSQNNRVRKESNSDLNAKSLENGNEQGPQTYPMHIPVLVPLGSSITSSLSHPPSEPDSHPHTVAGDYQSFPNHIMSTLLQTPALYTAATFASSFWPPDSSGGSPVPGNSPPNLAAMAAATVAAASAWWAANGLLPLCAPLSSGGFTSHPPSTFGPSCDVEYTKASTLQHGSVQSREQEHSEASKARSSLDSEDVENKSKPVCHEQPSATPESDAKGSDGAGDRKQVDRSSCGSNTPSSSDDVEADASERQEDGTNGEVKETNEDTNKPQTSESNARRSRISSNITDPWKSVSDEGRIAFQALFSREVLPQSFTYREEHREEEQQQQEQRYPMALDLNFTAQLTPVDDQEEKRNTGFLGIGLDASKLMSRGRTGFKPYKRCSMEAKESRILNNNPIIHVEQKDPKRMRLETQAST

| Binder | binding result |
| --- | --- |
| B1 | binds |
| B2 | binds |
